Experimental data reported in US20130224224A1 (Boehringer Ingelheim, published 2013).
Changes are numbered by the printed parent chain.

T1: human CX3CR1 (human, UniProt P49238 1-355)
T1 sequence: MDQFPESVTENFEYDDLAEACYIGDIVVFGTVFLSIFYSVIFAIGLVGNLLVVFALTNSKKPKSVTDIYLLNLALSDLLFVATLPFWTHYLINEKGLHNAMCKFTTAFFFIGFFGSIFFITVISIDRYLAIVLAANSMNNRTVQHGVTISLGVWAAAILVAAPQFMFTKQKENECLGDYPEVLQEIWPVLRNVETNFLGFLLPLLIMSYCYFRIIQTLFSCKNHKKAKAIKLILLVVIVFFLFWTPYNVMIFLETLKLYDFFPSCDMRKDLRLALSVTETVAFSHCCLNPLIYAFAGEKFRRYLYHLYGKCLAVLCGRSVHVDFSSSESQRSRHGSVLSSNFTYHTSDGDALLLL

T2: cynomolgus CX3CR1 (cynomolgus, UniProt P49238 1-355 (human entry))
T2 construct: transiently expressed on HEK293T cells; also called cyCX3CR1; cyno CX3CR1
T2 chain: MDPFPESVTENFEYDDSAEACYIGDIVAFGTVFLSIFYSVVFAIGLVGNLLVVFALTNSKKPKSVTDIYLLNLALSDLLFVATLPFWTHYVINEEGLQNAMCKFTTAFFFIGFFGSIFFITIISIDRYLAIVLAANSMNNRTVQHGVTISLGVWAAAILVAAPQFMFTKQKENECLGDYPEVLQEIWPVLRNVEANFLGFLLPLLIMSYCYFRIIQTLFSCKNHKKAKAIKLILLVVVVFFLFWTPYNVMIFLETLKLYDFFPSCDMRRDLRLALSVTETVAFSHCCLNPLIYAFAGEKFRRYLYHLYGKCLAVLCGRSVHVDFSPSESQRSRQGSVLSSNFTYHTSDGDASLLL

B1: CX3CR1BIIPMP54B3 (VHH)
VHH: EVQLVESGGGSVQAGESLRLSCAASGSIFSSNAMAWYRQAPGKQRDLVAAINSVGITKYADSVKGRFTISRDNAKNTVYLQMNSLKPEDTAVYYCTSDPRRGWDTRYWGQGTQVTVSS
notes: also called 54B03; not shown: C-terminal c-myc and His6 tags
B2: CX3CR1BII00306 (VHH)
VHH: DVQLVESGGGLVQPGGSLRLSCAASGSIFSSTAMAWYRQAPGKRRDLVAAISSVGVTKYADSVKGRFTISRDNSKNTVYLQMNSLRPEDTAVYYCTSDPRRGWDTRYWGQGTLVTVSS
notes: also called CX3CR1BII306
B3: CX3CR1BII00307 (VHH)
VHH: B2 VHH with S53T
notes: also called CX3CR1BII307
B4: CX3CR1BII00308 (VHH)
VHH: B2 VHH with T32N, S52N
notes: also called CX3CR1BII308
B5: CX3CR1BIIPMP54A4 (VHH)
VHH: B1 VHH with G9R, A50G
notes: also called 54A04; not shown: C-terminal c-myc and His6 tags
B6: CX3CR1BIIPMP54D8 (VHH)
VHH: B1 VHH with E16G, A50G, Q113L
notes: also called 54D08; CX3CR1BII54D08; not shown: C-terminal c-myc and His6 tags
B7: CX3CR1BIIPMP54G3 (VHH)
VHH: B1 VHH with A50L, Q113L
notes: also called 54G03; not shown: C-terminal c-myc and His6 tags

What was measured:
human CX3CR1 [1] = molecular target: T1, human CX3CR1; test: cell-based or functional assay
human CX3CR1 [2] = molecular target: T1, human CX3CR1; test: A647-fractalkine competition FACS, HEK293-huCX3CR1
Source text: (§1) Periplasmic extracts were screened in a human CX3CR1/human Fractalkine FACS competition assay to assess the blocking capacity of the expressed VHHs. Human CX3CR1 was presented on CHO cells overexpressing CX3CR1. Both a setup using cells harvested from an actively growing culture and a setup using frozen cells was used. As a detection reagent labeled fractalkine was used (R&D Systems, Minneapolis, Minn., USA) labeled with alexa647 (A647-Fractalkine) at a degree of labeling of 1. To setup the assay, first a titration series of the labeled fractalkine was performed on the CHO-huCX3CR1 cells in order to determine the EC50 value for binding. Initially screening was performed at a higher concentration of fractalkine (3 nM) to increase the assay robustness. To increase the sensitivity of the screening to a maximum, the EC30 concentration (1 nM) was chosen for subsequent screening. In brief 50 μl of periplasmic extract was added to 6 nM labeled fractalkine (50 μ;) and 200 000 CHO-huCX3CR1 cells. After one hour incubation at 4 C, cells were washed three times before read out was performed on a FACS Array (Becton Dickinson). First a gate was set on the intact cells as determined from the scatter profile. Next, dead cells were gated out by their fluorescence profile from the PI stain (Sigma, St Louis, US). The fluorescence profile from the alexa647 label was determined for each sample and used for calculation of blocking capacity. As controls, conditions were taken along where there was no VHH present in the peri extract or a known irrelevant VHH and samples were included where excess cold fractalkine was included. For each sample the percentage block was determined using the control samples to determine the assay window.
(§2) The blocking capacity towards the ligand fractalkine of the VHHs was evaluated in a human CX3CR1 competition FACS as outlined in Example 4. Either CHO-huCX3CR1 cells, BA/F3-huCX3CR1 cells or transiently transfected HEK293T cells were used. The amount of labeled ligand used in the different competition setups was also varied. The IC₅₀ values for VHHs blocking the interaction of human fractalkine to human CX3CR1 are depicted in Table 19.

human CX3CR1 [3] = molecular target: T1, human CX3CR1; test: periplasmic extract, A647-fractalkine competition FACS, CHO-huCX3CR1
Source text: as §1

cynomolgus CX3CR1 [4] = molecular target: T2, cynomolgus CX3CR1; test: A647-fractalkine competition FACS, HEK293T cynomolgus CX3CR1
Source text: as §1
(§3) For later identified VHHs, a human Fractalkine competition FACS was set up using human or cynomolgus CX3CR1 expressed in HEK293T cells. Both the human and the cynomolgus receptor was transiently transfected in HEK293T cells and transfections were matched by the binding of the labeled ligand, human fractalkine. The competition was evaluated using the EC30 concentration of fractalkine and as such obtained IC50 values are a good estimate of the Ki value, a measure for affinity (Table 22). The experiment was performed as described in Example 4.

human CX3CR1 [5] = molecular target: T1, human CX3CR1; test: A647-fractalkine competition FACS, BA/F3-huCX3CR1
Source text: as §1, §2

cynomolgus CX3CR1 [6] = molecular target: T2, cynomolgus CX3CR1; test: A647-fractalkine competition FACS, cynomolgus against human CX3CR1
Source text: as §1, §3

human CX3CR1 [7] = molecular target: T1, human CX3CR1; test: A647-fractalkine competition FACS, HEK293T human CX3CR1
Source text: as §1, §3

human CX3CR1 [8] = molecular target: T1, human CX3CR1; test: A647-fractalkine competition FACS, CHO-huCX3CR1
Source text: as §1, §2

human CX3CR1 [9] = molecular target: T1, human CX3CR1; test: fractalkine competition FACS
human CX3CR1 [10] = molecular target: T1, human CX3CR1; test: cell-based or functional assay; remark: listed apart in the source

Binder | % block, fractalkine induced chemotaxis (human CX3CR1 [1]) [%] | IC50, fractalkine induced chemotaxis (human CX3CR1 [1]) [nM] | % block (human CX3CR1 [2]) [%] | IC50 (human CX3CR1 [2]) [nM] | % block (human CX3CR1 [3]) [%] | % block (cynomolgus CX3CR1 [4]) [%] | IC50 (cynomolgus CX3CR1 [4]) [nM] | % block (human CX3CR1 [5]) [%] | IC50 (human CX3CR1 [5]) [nM] | ratio (cynomolgus/human IC50) (cynomolgus CX3CR1 [6]) | % block (human CX3CR1 [7]) [%] | IC50 (human CX3CR1 [7]) [nM] | % block (human CX3CR1 [8]) [%] | IC50 (human CX3CR1 [8]) [nM] | % block (human CX3CR1 [9]) [%] | IC50 (human CX3CR1 [9]) [nM] | % block, ligand induced chemotaxis (human CX3CR1 [10]) [%] | IC50, ligand induced chemotaxis (human CX3CR1 [10]) [nM]
B1 | 73 | 100 | 92 | 67 | 90.1 | 95 | 470 | 99 | 33 | 7.05 | 92 | 67 | 108 | 25 |  |  |  | 
B2 |  |  |  |  |  |  |  |  |  |  |  |  |  |  | 97 | 1.7 | 95 | 63
B3 |  |  |  |  |  |  |  |  |  |  |  |  |  |  | 97 | 1.9 | 100 | 63
B4 |  |  |  |  |  |  |  |  |  |  |  |  |  |  | 97 | 1.6 | 89 | 44
B5 |  |  | 100 | 49 | 86.6 | 91 | 31 |  |  | 0.64 | 100 | 49 |  |  |  |  |  | 
B6 | 33 |  | 95 | 84 | 64.1 | 91 | 72 | 99 | 38 | 0.85 | 95 | 84 | 101 | 15 |  |  |  | 
B7 | 40 |  | 89 | 270 | 74.7 | 89 | 470 | 98 | 98 | 1.74 | 89 | 270 | 107 | 56 |  |  |  | 
